Reference: EP4667489A1 (Kyinno Biotechnology Co., Ltd., dated 2025)

Assays:
[1] = molecular target: T1, EGFR-mFc (fusion protein of the human EGFR extracellular domain and mouse Fc; Kyinno, Cat No.: KP-1148) (human; mouse, UniProt P00533 25-645); test: ELISA, blocking of EGFR-mFc binding to coated EGF-His
T1 construct: extracellular domain; bought; also called EGFR-Fc; not shown: mouse Fc

[2] = molecular target: T2, human EGFR expressed on CT26-EGFR cells (human, UniProt P00533 25-1210); test: cell-based or functional assay
[3] = molecular target: T2, human EGFR expressed on CT26-EGFR cells; test: flow cytometry on CT26-EGFR cells
[4] = molecular target: T3, human LAG3 expressed on 293T-LAG3 cells (human, UniProt P18627 23-525); test: flow cytometry on 293T-LAG3 cells
T3 construct: whole, on cells; 293T cells stably expressing human LAG3 (Kyinno KC-0214); also called LAG3-expressing cells
T3 sequence (looked up): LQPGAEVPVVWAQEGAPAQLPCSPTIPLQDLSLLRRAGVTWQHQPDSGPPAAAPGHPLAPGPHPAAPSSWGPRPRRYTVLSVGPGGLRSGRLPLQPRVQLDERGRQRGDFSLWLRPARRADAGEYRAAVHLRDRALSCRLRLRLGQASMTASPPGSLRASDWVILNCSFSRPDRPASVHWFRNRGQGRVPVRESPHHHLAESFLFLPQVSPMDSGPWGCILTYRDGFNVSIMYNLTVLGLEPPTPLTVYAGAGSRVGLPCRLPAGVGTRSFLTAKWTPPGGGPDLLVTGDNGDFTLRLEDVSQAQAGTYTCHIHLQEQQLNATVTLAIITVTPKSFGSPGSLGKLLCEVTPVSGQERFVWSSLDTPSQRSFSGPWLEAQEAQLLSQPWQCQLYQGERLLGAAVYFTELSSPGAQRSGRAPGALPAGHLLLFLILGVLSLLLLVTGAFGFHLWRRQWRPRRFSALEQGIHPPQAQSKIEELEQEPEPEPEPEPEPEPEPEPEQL

[5] = molecular target: T4, LAG3-hFc (fusion protein of the human LAG3 extracellular domain and human IgG1-Fc) (human, UniProt P18627 23-450); test: flow cytometry, blocking of LAG3-hFc binding to Daudi cells
T4 construct: extracellular domain; not shown: human IgG1-Fc, Genbank CAC20454.1
T4 sequence (looked up): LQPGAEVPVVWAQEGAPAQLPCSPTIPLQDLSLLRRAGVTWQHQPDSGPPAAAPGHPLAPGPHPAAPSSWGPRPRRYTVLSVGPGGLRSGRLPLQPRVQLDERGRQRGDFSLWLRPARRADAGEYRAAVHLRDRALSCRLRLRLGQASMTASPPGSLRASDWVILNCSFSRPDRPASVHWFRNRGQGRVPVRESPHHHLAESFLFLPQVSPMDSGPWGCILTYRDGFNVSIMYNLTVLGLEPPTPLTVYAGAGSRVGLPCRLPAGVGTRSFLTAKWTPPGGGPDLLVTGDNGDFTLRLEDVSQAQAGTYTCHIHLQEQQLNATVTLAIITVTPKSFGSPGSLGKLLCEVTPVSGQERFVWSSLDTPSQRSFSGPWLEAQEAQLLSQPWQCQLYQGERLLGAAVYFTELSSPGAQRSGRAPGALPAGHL

[6] = molecular target: T5, human PD1 expressed on 293T-PD1 cells (human, UniProt Q15116 25-288); test: flow cytometry on 293T-PD1 cells
T5 construct: whole, on cells; 293T cells stably expressing human PD1 (Kyinno KC-0204); also called PD1-expressing cells; Jurkat NFAT-PD1-luc cells
T5 sequence (Q15116 25-288): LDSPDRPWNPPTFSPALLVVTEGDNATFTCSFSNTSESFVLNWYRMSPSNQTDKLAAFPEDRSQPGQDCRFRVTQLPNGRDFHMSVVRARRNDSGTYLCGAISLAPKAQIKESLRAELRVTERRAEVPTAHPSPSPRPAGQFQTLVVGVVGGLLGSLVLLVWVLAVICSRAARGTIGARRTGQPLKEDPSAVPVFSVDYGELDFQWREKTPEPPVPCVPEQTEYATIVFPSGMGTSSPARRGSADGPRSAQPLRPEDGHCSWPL

[7] = molecular target: T6, PD1-hFc (fusion protein of the human PD1 extracellular domain and human IgG1-Fc) (human, UniProt Q15116 25-170); test: flow cytometry, blocking of PD1-hFc binding to 293T-PDL1 cells
T6 construct: extracellular domain; also called human PD1-hFc; not shown: human IgG1-Fc, Genbank CAC20454.1
T6 sequence (Q15116 25-170): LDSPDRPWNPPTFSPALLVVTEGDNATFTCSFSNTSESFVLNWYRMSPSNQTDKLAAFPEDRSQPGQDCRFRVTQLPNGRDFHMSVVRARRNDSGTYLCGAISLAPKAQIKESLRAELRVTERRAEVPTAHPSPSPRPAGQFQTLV

B1: KA-1063 H22A12-2V1-hIgG1 (antibody, V domains shown)
VH: QVQLVQSGAEVKKPGASVKVSCKASGYTFTDYYMNWVRQAPGQGLEWIGDINPNDGGTSYNQKFKGRATLTVDKSTSTAYMELSSLRSEDTAVYYCAREILYYVTSFYFDYWGQGTTVTVSS
VL: DIQITQSPSSLSASVGDRVTITCSATSGVSYMHWYQQKPGKAPKRLIYDTSRLASGVPSRFSGSGSGTDYTLTISSLQPEDFATYYCQQWSSNPPYTFGQGTRLEIKR
notes: anti-EGFR humanized antibody, human IgG1 / kappa
Q: What does the source list for B1?
A: IC50 [1]: 0.0357 mg/L; IC50, luciferase reporter (procedure of Example 34) [2]: 0.389 nM; EC50 [3]: 0.0382 mg/L

B2: anti-LAG3 murine antibody 28G2 (hybridoma cell line KD-0019 28G2-7) (antibody, V domains shown)
VH: DVKLQESGPGLVKPSQSLSLTCSVTGYSFTSGYYWNWIRLFPGNKLEWMGYVSYFGTNNYNPSLKNRFSITRDTSKNQFFLKLNSVSTEDTATYYCARGEEWDWSFDVWGTGTTVTVSS
VL: DIVLTQSPAFMSASPGEKVTMTCSASSSVSYMHWYQQKSGTSPKRWIYDTSKLASGVPTRFSGSGSGTSYSLTISSMEAEDAATYYCQQWSTNPPYTFGGGTKLEIK
notes: murine antibody tested as hybridoma culture supernatant
Q: What does the source list for B2?
A: EC50 [4]: 1.08 mg/L; IC50 [5]: 1.26 mg/L

B3: anti-PD1 murine antibody 107D12-10 (hybridoma cell line KD-22-0054 107D12-10) (antibody, V domains shown)
VH: QVQLKESGGGLVKPGGSLKLSCAASGFTFSDYGMHWVRQAPEKGLEWVAYISSGSYTIYYADTVRDRFTISRDSAKNTLFLQMTSLRSEDTAMYYCVRRGPGYFGSTALDYWGQGTTLTVSS
VL: QIVLTQSPAIMSASPGEKVTMTCSATSGVSYMHWYQQKSGTSPKRWIYDTSRLASGVPARFSGSGSGTSYSLTISSMEAEDAATYYCQQWSSNPPYTFGSGTKLEIK
notes: as for B2
Q: What does the source list for B3?
A: EC50 [6]: 0.685 mg/L; IC50 [7]: 2.26 mg/L
